In patent US20140370037A1 (published 2014):
Substitutions are numbered along the chain they refer to.

B1: SC16.15 (antibody, V domains shown)
VH: QVQLQQSGAELAKPGASVKMSCKASGYTFTRYWIHWIKQRPGQGLEWIGYINPTTVYTEFNQNFKDKATLTADKSSTTASMQLSSLTSEDSAVYYCARGGSNFFDYWGQGTTLTVSS
VL: DIQMTQSPASLAASVGETVAITCRASENIYYNLAWYQQKQGKSPQLLIYTANSLEDGVPSRFSGSGSGTQYSLKINSMQPEDSATYFCKQAYDVPPTFGGGTKLEIK
notes: murine mAb
B2: hSC16.34 (antibody, V domains shown)
VH: QVQLVQSGAEVKKPGASVKVSCKASGYTFTNYGMNWVRQAPGQRLEWMGWINTYTGDPTYADDFKGRVTITRDTSASTAYMELSSLRSEDTAVYYCARIGGNSPSDYWGQGTTVTVSS
VL: DIQMTQSPSSLSASVGDRVTITCKASQSVSNDVAWYQQKPGKVPKLLIYYASNRYSGVPSRFSGSGSGTDFTLTISSLQPEDVATYFCQQDYSSPWTFGGGTKVEIK
notes: humanized (CDR grafted)
B3: hSC16.56 (antibody, V domains shown)
VH: B2 VH with R44G, D57E, I70M, R72T, A76T, S84R, E89D, G101D, N102S, T113L
VL: EIVMTQSPATLSVSPGERATLSCKASQSVSNDVVWYQQKPGQAPRLLIYYASNRYTGIPARFSGSGSGTEFTLTISSLQSEDFAVYYCQQDYTSPWTFGQGTKLEIKR
notes: humanized (CDR grafted)

How the values were obtained:
human DLL3 antigen [1] = target: T1, human DLL3 antigen (human, UniProt Q9NYJ7 27-492, limits assumed); experiment: SPR, Biacore 2000, 25 and 12.5 nM human DLL3 antigen, 1:1 Langmuir model
T1 construct: also called immobilized human DLL3; recombinant human DLL3
T1 sequence (looked up): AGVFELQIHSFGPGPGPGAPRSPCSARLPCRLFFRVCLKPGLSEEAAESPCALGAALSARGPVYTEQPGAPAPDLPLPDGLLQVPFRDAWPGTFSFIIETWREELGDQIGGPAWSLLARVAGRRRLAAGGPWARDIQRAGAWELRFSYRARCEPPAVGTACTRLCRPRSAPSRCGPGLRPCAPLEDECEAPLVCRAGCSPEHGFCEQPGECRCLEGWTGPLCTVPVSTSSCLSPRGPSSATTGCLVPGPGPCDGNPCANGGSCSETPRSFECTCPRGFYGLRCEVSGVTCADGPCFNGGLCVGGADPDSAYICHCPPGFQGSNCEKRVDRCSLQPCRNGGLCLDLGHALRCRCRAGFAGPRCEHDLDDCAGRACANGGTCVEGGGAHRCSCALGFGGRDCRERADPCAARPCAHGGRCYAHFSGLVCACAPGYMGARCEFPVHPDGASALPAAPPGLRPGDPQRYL
Description: (§1) In this respect the humanized constructs (CDR grafted) were compared with “traditional” chimeric antibodies comprising the murine parent (or donor) heavy and light chain variable domains and a human constant region substantially equivalent to that used in the humanized constructs. With these constructs surface plasmon resonance (SPR) was conducted using a Biacore 2000 (GE Healthcare) to identify any subtle changes in rate constants brought about by the humanization process.

human DLL3 antigen [2] = target: T1, human DLL3 antigen; experiment: SPR, Biacore 2000, human DLL3 antigen
Description: Various methods were used to analyze the binding and immunochemical characteristics of selected DLL3 modulators generated as set forth above. […] Affinities and kinetic constants kₒₙ and koff of the selected modulators were measured using bio-layer interferometry analysis on a ForteBio RED (ForteBio, Inc.) or surface plasmon resonance using a Biacore 2000 each according to the manufacturer's instructions.
as §1

Binder | Kd (human DLL3 antigen [1]) [nM] | binding result (human DLL3 antigen [2])
B1 | ~0.2 | –
B2 | – | binds
B3 | – | binds
